In the Immune Epitope Database (IEDB):

Tests used:
HLA-B*15:17 = assay: IEDB peptide-MHC binding, purified MHC/competitive/fluorescence; filed as Kd, often an IC50 or EC50 that approximates it; ≥ and ≤ were set here for values at or beyond the usual limits of such assays
HLA-A*26:01 = assay: as above
HLA-B*39:01 = assay: as above
HLA-B*51:01 = assay: as above
HLA-B*27:03 = assay: as above
HLA-B*18:01 [1] = assay: as above
HLA-A*24:03 [2] = assay: as above
HLA-B*57:01 [3] = assay: as above
HLA-A*69:01 [4] = assay: as above
HLA-B*46:01 [5] = assay: as above
HLA-A*02:01 [6] = assay: as above
HLA-A*29:02 [7] = assay: IEDB peptide-MHC binding, purified MHC/direct/fluorescence; filed as Kd, often an IC50 or EC50 that approximates it; ≥ and ≤ were set here for values at or beyond the usual limits of such assays; conditions: source organism: Convict Creek 107 virus
HLA-A*02:03 = assay: as above
HLA-A*68:02 = assay: as above
HLA-A*03:01 [8] = assay: as above
HLA-A*02:19 [9] = assay: as above
HLA-A*02:16 = assay: as above
HLA-A*23:01 [10] = assay: as above
HLA-A*02:11 [11] = assay: as above
HLA-A*02:12 [12] = assay: as above
HLA-A*02:11 [13] = assay: IEDB peptide-MHC binding, purified MHC/competitive/fluorescence; filed as Kd, often an IC50 or EC50 that approximates it; ≥ and ≤ were set here for values at or beyond the usual limits of such assays
HLA-A*31:01 = assay: IEDB peptide-MHC binding, purified MHC/direct/fluorescence; filed as Kd, often an IC50 or EC50 that approximates it; ≥ and ≤ were set here for values at or beyond the usual limits of such assays; conditions: source organism: Yellow fever virus 17D
HLA-A*11:01 = assay: as above; conditions: source organism: Yellow fever virus 17D
HLA-B*15:01 [14] = assay: as above; conditions: source organism: Yellow fever virus 17D
HLA-B*40:01 = assay: as above; conditions: source organism: Yellow fever virus 17D
HLA-B*18:01 [15] = assay: as above; conditions: source organism: Yellow fever virus 17D
HLA-B*15:09 = assay: as above; conditions: source organism: Yellow fever virus
HLA-B*57:01 [16] = assay: as above; conditions: source organism: Yellow fever virus 17D
HLA-A*69:01 [17] = assay: as above; conditions: source organism: Yellow fever virus 17D
HLA-B*48:01 = assay: as above; conditions: source organism: Yellow fever virus 17D
HLA-A*01:01 = assay: as above
HLA-B*46:01 [18] = assay: as above; conditions: source organism: Yellow fever virus 17D
HLA-B*27:05 = assay: as above; conditions: source organism: Yellow fever virus 17D
HLA-B*44:02 = assay: as above; conditions: source organism: Yellow fever virus 17D
HLA-A*02:01 [19] = assay: as above; conditions: source organism: Yellow fever virus 17D
HLA-B*58:01 = assay: as above; conditions: source organism: Yellow fever virus 17D
HLA-A*24:03 [20] = assay: as above; conditions: source organism: Choclo virus
HLA-A*29:02 [21] = assay: IEDB peptide-MHC binding, purified MHC/competitive/fluorescence; filed as Kd, often an IC50 or EC50 that approximates it; ≥ and ≤ were set here for values at or beyond the usual limits of such assays; conditions: source organism: Salmonella enterica subsp. enterica serovar Typhimurium str. LT2
HLA-B*15:01 [22] = assay: as above; conditions: source organism: Salmonella enterica subsp. enterica serovar Typhimurium str. LT2
HLA-A*03:01 [23] = assay: as above; conditions: source organism: Salmonella enterica subsp. enterica serovar Typhimurium str. LT2
HLA-A*02:19 [24] = assay: as above; conditions: source organism: Salmonella enterica subsp. enterica serovar Typhimurium str. LT2
HLA-A*23:01 [25] = assay: as above; conditions: source organism: Salmonella enterica subsp. enterica serovar Typhimurium str. LT2
HLA-A*02:12 [26] = assay: as above; conditions: source organism: Salmonella enterica subsp. enterica serovar Typhimurium str. LT2
[27] = source organism: Orthohantavirus sinnombreense
[28] = source organism: Convict Creek 107 virus
[29] = source organism: Bradyrhizobium diazoefficiens
[30] = source organism: Yellow fever virus 17D
[31] = source organism: Salmonella enterica subsp. enterica serovar Typhimurium str. LT2

Q: For LFPELECFF, which Kd (HLA-B*15:17; [27]) is on record?
A: The Kd was no less than 20 µM.

Q: What about the Kd (HLA-A*26:01; [27]) of the same sequence?
A: Its Kd is no less than 20 µM.

Q: What about the Kd (HLA-B*39:01; [27]) of the same sequence?
A: Its Kd is no less than 20 µM.

Q: What about the Kd (HLA-B*51:01; [27]) of the same sequence?
A: Its Kd is no less than 20 µM.

Q: And the Kd (HLA-B*27:03; [27])?
A: The Kd was no less than 20 µM.

Q: What about the Kd (HLA-B*18:01 [1]; [27]) of the same sequence?
A: The Kd was no less than 20 µM.

Q: What about the Kd (HLA-A*24:03 [2]; [27]) of the same sequence?
A: The Kd was 0.0008 µM.

Q: And the Kd (HLA-B*57:01 [3]; [27])?
A: The Kd was no less than 20 µM.

Q: What about the Kd (HLA-A*69:01 [4]; [27]) of the same sequence?
A: The Kd was no less than 20 µM.

Q: What about the Kd (HLA-B*46:01 [5]; [27]) of the same sequence?
A: Its Kd is no less than 20 µM.

Q: And the Kd (HLA-A*02:01 [6]; [27])?
A: The Kd was no less than 20 µM.

Q: What about the Kd (HLA-A*29:02 [7]) of the same sequence?
A: Its Kd is no less than 20 µM.

Q: And the Kd (HLA-A*02:03; [28])?
A: The Kd was no less than 20 µM.

Q: What about the Kd (HLA-A*68:02; [28]) of the same sequence?
A: Its Kd is no less than 20 µM.

Q: What about the Kd (HLA-A*03:01 [8]; [28]) of the same sequence?
A: The Kd was no less than 20 µM.

Q: And the Kd (HLA-A*02:19 [9]; [28])?
A: Its Kd is no less than 20 µM.

Q: What about the Kd (HLA-A*02:16; [28]) of the same sequence?
A: The Kd was no less than 20 µM.

Q: What about the Kd (HLA-A*23:01 [10]; [28]) of the same sequence?
A: The Kd was no less than 20 µM.

Q: What about the Kd (HLA-A*02:11 [11]; [28]) of the same sequence?
A: Its Kd is no less than 20 µM.

Q: What about the Kd (HLA-A*02:12 [12]; [28]) of the same sequence?
A: The Kd was no less than 20 µM.

Q: VTPGPHAQI was tested. Which Kd (HLA-A*02:11 [13]; [29]) did it give?
A: The Kd was 0.0704 µM.

Q: What about the Kd (HLA-A*02:01 [6]; [29]) of the same sequence?
A: Its Kd is 1.05 µM.

Q: For VRGGMVAPL, which Kd (HLA-A*31:01) is on record?
A: The Kd was no less than 20 µM.

Q: And the Kd (HLA-A*11:01)?
A: The Kd was no less than 20 µM.

Q: What about the Kd (HLA-B*15:01 [14]) of the same sequence?
A: The Kd was no less than 20 µM.

Q: And the Kd (HLA-B*40:01)?
A: Its Kd is no less than 20 µM.

Q: And the Kd (HLA-B*18:01 [15])?
A: The Kd was no less than 20 µM.

Q: And the Kd (HLA-A*03:01 [8]; [30])?
A: Its Kd is no less than 20 µM.

Q: What about the Kd (HLA-B*15:09) of the same sequence?
A: The Kd was no less than 20 µM.

Q: And the Kd (HLA-B*57:01 [16])?
A: The Kd was no less than 20 µM.

Q: And the Kd (HLA-A*69:01 [17])?
A: The Kd was no less than 20 µM.

Q: What about the Kd (HLA-B*48:01) of the same sequence?
A: The Kd was no less than 20 µM.

Q: And the Kd (HLA-A*01:01; [30])?
A: Its Kd is no less than 20 µM.

Q: And the Kd (HLA-B*46:01 [18])?
A: The Kd was no less than 20 µM.

Q: And the Kd (HLA-B*27:05)?
A: The Kd was no less than 20 µM.

Q: What about the Kd (HLA-B*44:02) of the same sequence?
A: Its Kd is no less than 20 µM.

Q: And the Kd (HLA-A*02:01 [19])?
A: Its Kd is no less than 20 µM.

Q: What about the Kd (HLA-B*58:01) of the same sequence?
A: Its Kd is no less than 20 µM.

Q: What does the source list for KACDLAMCY?
A: Kd (HLA-A*26:01; source organism: Choclo virus): ≥ 20 µM; Kd (HLA-B*39:01; source organism: Choclo virus): ≥ 20 µM; Kd (HLA-B*51:01; source organism: Choclo virus): ≥ 20 µM; Kd (HLA-B*27:03; source organism: Choclo virus): ≥ 20 µM; Kd (HLA-B*18:01 [1]; source organism: Choclo virus): ≥ 20 µM; Kd (HLA-B*57:01 [3]; source organism: Choclo virus): ≥ 20 µM; Kd (HLA-A*69:01 [4]; source organism: Choclo virus): ≥ 20 µM; Kd (HLA-B*46:01 [5]; source organism: Choclo virus): ≥ 20 µM; Kd (HLA-A*02:01 [6]; source organism: Choclo virus): ≥ 20 µM; Kd (HLA-A*02:03; source organism: Choclo virus): ≥ 20 µM; Kd (HLA-A*68:02; source organism: Choclo virus): ≥ 20 µM; Kd (HLA-A*24:03 [20]): ≥ 20 µM; Kd (HLA-A*02:19 [9]; source organism: Choclo virus): ≥ 20 µM; Kd (HLA-A*02:16; source organism: Choclo virus): ≥ 20 µM; Kd (HLA-A*01:01; source organism: Pergamino virus): 3.28 µM; Kd (HLA-A*23:01 [10]; source organism: Choclo virus): ≥ 20 µM; Kd (HLA-A*02:11 [11]; source organism: Choclo virus): ≥ 20 µM; Kd (HLA-A*02:12 [12]; source organism: Choclo virus): ≥ 20 µM

Q: What does the source list for ILNSDDEQA?
A: Kd (HLA-A*29:02 [21]): 0.644 µM; Kd (HLA-B*15:17; [31]): ≥ 20 µM; Kd (HLA-A*26:01; [31]): ≥ 20 µM; Kd (HLA-B*39:01; [31]): ≥ 20 µM; Kd (HLA-B*51:01; [31]): ≥ 20 µM; Kd (HLA-B*27:03; [31]): ≥ 20 µM; Kd (HLA-B*15:01 [22]): ≥ 20 µM; Kd (HLA-B*18:01 [1]; [31]): ≥ 20 µM; Kd (HLA-A*03:01 [23]): ≥ 20 µM; Kd (HLA-A*24:03 [2]; [31]): ≥ 20 µM; Kd (HLA-A*02:19 [24]): 1.63 µM; Kd (HLA-B*57:01 [3]; [31]): ≥ 20 µM; Kd (HLA-A*69:01 [4]; [31]): ≥ 20 µM; Kd (HLA-A*23:01 [25]): ≥ 20 µM; Kd (HLA-B*46:01 [5]; [31]): ≥ 20 µM; Kd (HLA-A*02:11 [13]; [31]): 0.142 µM; Kd (HLA-A*02:12 [26]): ≥ 20 µM
